Results as given in the supplement of paper PMC12042874.
± gives the uncertainty stated by the source.

Experiment: amyloid nucleation score (Sup35N fusion, yeast selection) (log enrichment); library NNK2; higher = more nucleation; inactive = no reads after selection
Procedure, shortened: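 In psi-negative yeast, Sup35N fusions carrying peptides of 20 random codons were induced with 100 μM copper sulfate for 24 hours. The cells then grew 7 days at 30°C on medium lacking adenine and uracil, and plasmid inserts from input and output were Illumina-sequenced, excluding sequences with under 100 input reads. Nucleation score is the DiMSum log enrichment of output over input reads, centred on the mode score of non-aggregating sequences.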

Substance | amyloid nucleation score
TYLDGAYLLFDSARFAKAVK | 0.144 ± 0.24
LILGLRGPLPCMLHNSGTYL | 0.19 ± 1.1
LGSLDPKRHLYI | -0.784 ± 1.1
PYALWGIRESHLFQKCWSGM | 3.33 ± 0.099
ASDVKGSANDVVGFWVLPDQ | 5.907 ± 0.049
TCIYSYRRNSCRIGCLRSWR | 0.425 ± 0.6
DMRLWCVWSSIACDTSYSTS | 0.26 ± 0.2
IDVGYIYGMVCWQTG | 4.08 ± 0.083
GLLKTQ | -0.087 ± 0.31
NGTSLTMTYIRKLAFRGLEK | 0.215 ± 0.26
TNCHLFVSFFLCVDVYTVVC | 4.72 ± 0.063
VTIIVLPANVMLMWVFCYMY | -0.93 ± 0.78
KCRLSIF | inactive
TAVVLTTGLHVIQVLWHN | 2.94 ± 0.12
ASGVNFGT | -0.215 ± 0.45
PSAVRTILVTAI | -0.447 ± 0.35
SGLEQRGMFRRKNLPIKWCL | 3.89 ± 0.041
ALYRSGHLMLTVNGGCWWDF | 0.45 ± 0.8
RFQLVSAMAFTYMVAR | -0.211 ± 0.56
FRAPFTDAGPWSSSGNFLRL | -0.151 ± 0.37
FSVRLSELSMTNLSTQYEIS | 1.82 ± 0.15
SLIKKFMLCFVYQREAHLLS | 0.402 ± 0.8
NPGETDQRQSWSCSDCPAFS | 1.51 ± 0.35
SWCCTSIYHVRLW | 9.427 ± 0.058
WIITNCSLFFSVALS | 6.79 ± 0.085

Substance | amyloid nucleation score
YYGSGNPSQGVVSEWLVRDA | 0.571 ± 0.36
SDFIPGKMCLNCLWWFVPTR | -0.496 ± 0.36
HKGWIKLLLPAHQLITLPPN | 0.174 ± 1
ASAGCTTGTLGGPHHRHMIV | 0.523 ± 0.26
FVSSII | -1.29 ± 0.39
CMWLLMTHPHKVTIMQ | 7.262 ± 0.061
GGTSLRNTLGICLNYLQS | inactive
KSQRKVIGTLLKVYWPWGCM | 0.654 ± 0.25
GNKMGCLFIGYCGFCTTVRP | 1.74 ± 0.15
SWCLKRRTPHFVQVYHRNND | -0.095 ± 0.26
RSCFPCSCK | 0.472 ± 0.31
LALCREWVTAGSGSFYLDGP | -0.06 ± 1.1
SMYPGLDT | -0.353 ± 0.79
ALLVRVIRYRGSRNESRCPA | 1.42 ± 0.34
CIGSLNVAVW | 0.152 ± 0.21
RYGVRSQCYGVTKRLFAITA | 0.951 ± 0.33
HMSVGNFLIPLCITMLRGIG | -0.347 ± 1.1
GVYNITTLLPRCVVNVVL | 7.482 ± 0.028
KWFSIMRPVRLVRFHWTGSN | 3.63 ± 0.089
SFEFVACVVMYMCCRTMFIL | -0.164 ± 0.24
GVCVKRFFKLVTAGECNSKG | -0.13 ± 0.4
GECRCYHQTCGFHCNLGFGY | 4.7 ± 0.08
WVCLYDVVICRIRLSDRENS | 0.713 ± 0.74
KRCYCIKGVCNLNGISPKVK | -0.468 ± 0.36
CVLVFIVNKTYA | 4.13 ± 0.06

Substance | amyloid nucleation score
CVLYCVGFN | 6.483 ± 0.042
EHLWYLIREIPNHEFKNKLE | 0.073 ± 0.42
SVIDFLLAYRKDLWCWDLT | 0.19 ± 0.8
HDRVIRQN | 0.084 ± 0.26
LVHYFICHVPFLIFRYDKVT | inactive
VAFIFRSSWKSIPKTPKMYS | inactive
SVQFRMIQDLRVAADGRPRA | 5.545 ± 0.05
YLCVYIRLYFMPLRYWKKMC | -0.606 ± 0.44
IQTHSSSWG | -0.288 ± 1
EVERGIN | 0.62 ± 0.56
SWDHDYCGRWWCSNARGKIN | 4.3 ± 0.07
SSFLATVSVQCNDRYNSHRS | 4.26 ± 0.064
MTSRVETSKCNCSLQVWRPL | 0.579 ± 0.37
NIMSFFHLSLGVDFVHVSPG | 0.144 ± 0.19
SCCCYMIGKGIPQM | 0.394 ± 0.3
STRDQQWMMRNRG | -0.381 ± 0.79
VLINEHYGYRFFCFNCADGK | 8.228 ± 0.036
LYRLSFSLFWERNRVHSFIR | -0.232 ± 1.1
HMQPYIRESISVG | inactive
CYSTLGLSG | 0.516 ± 0.81
RVWDNSVLGWQQGFSTVERV | 0.766 ± 0.3
IIRRF | 0.28 ± 0.33
SVLLVSLDFSPITGYSKGGL | 2.72 ± 0.082
NPEDPQSMLLVVGCVEKN | 0.214 ± 0.54
GAEFTFGLFTYEFGIGQG | 0.285 ± 0.57

Substance | amyloid nucleation score
VFFGVQNKR | 3.04 ± 0.095
FYCRVFTLSGFVRIWGDC | -0.562 ± 1.1
RTVLATYMTPRSTPKSDYPR | -0.734 ± 0.48
SVVLYMLVLLDADLSVKTRD | 2.52 ± 0.06
CIDVSLFNGHACWIVCFSPV | 5.48 ± 0.045
GLNVLCSLAIKAKLDGRWRH | 9.371 ± 0.072
PEMLHTVILGISSNHYERGL | -1.12 ± 0.74
AKLLSAVVWDCHWV | 5.17 ± 0.055
TYYFVVQFI | 8.284 ± 0.036
KRRSQIRMTNDNLASVNMKN | 1.43 ± 0.096
LVVWPMNQPLPLSNRPTPKR | 1.83 ± 0.3
HHSELFIIITYFG | 0.206 ± 0.5
GPIWCRS | -0.467 ± 0.74
FNVSVGMMNFRMERLGI | -0.819 ± 0.42
SPWKTFMQVLWDTWVARVCL | 0.515 ± 0.28
WTCVEVHAVYCFGSVDELVL | 8.556 ± 0.058
VDSRGFHYDL | inactive
TAGLYDKTLFYSFYLRYPKF | inactive
GSLGASVSNFGVAYSLCATR | -0.359 ± 0.65
NTFQSKDRGQWCSTRNAYKG | -0.772 ± 0.45
LVYVWKDLAYMVLLHFRLFL | -1.16 ± 1.1
MKVPVRIRWVPLFSDFTYQV | -0.736 ± 0.36
TLCTVSHLNDSLLIFIRFVV | inactive
PDFYMYPSLNDKSDLI | -0.78 ± 0.76
LLNYTRGACCDRTRVQFSTT | -0.079 ± 0.76

Substance | amyloid nucleation score
VISQRLFS | -0.155 ± 0.74
GGERMRSRKYEYGGWNMCYY | inactive
PCNLKNNCVSEWIGLFVQPQ | 2.23 ± 0.18
LIIVMTLPYFGTSAM | 0.362 ± 0.3
VRNGMANKGNDGRAAWEVNG | 1.25 ± 0.21
YLLFTMRNLLILGRQGRSSL | -0.905 ± 0.45
DYYRPIIGH | -0.407 ± 0.28
SRAIECVRIYTFNSHSWFIA | -1.38 ± 1.1
QLGIGFFGRKWDGHL | 2.79 ± 0.16
PAASLRLRELMRYDDWRGVA | 0.03 ± 0.38
RGVLYAKVL | 0.808 ± 0.33
LRSGGLFRDIMCRRDYVRCF | 1.23 ± 0.32
VRHGMSIFSCYPVTPTRLER | 0.266 ± 0.38
RSTLPGRRFFIGNILYN | -0.578 ± 0.78
VYYGVYLMSCFVAGGYFYCF | 3.75 ± 0.061
CRAFVWQ | -0.889 ± 0.55
RLRIMYSTLLATGMV | 0.178 ± 0.5
SSRQSW | 0.082 ± 1
YKILQFETSFRT | -0.977 ± 0.63
EYNDRCV | 0.974 ± 0.28
MYLVYHYLSVRAFLFMSTMV | -0.39 ± 0.61
MVYPRYVSDTKQSRLLAGRE | 0.604 ± 0.57
KIFSSF | -1.01 ± 1.1
SLSVSTAVIVITLTNGEFIG | 2.64 ± 0.1
DGMSRSVRKNCEAGCRRSFG | 4.58 ± 0.048

Substance | amyloid nucleation score
NIFMWSSTEIHCRWKVFLRL | -0.949 ± 0.44
YVRYFSIQTGHV | inactive
ESSSVKPPVRFLW | 0.455 ± 0.64
FFWNM | -0.274 ± 0.34
SVGYWTVDSVTSVATPLFLA | 0.331 ± 0.35
YYGLVQRLFSCVCYYVLTF | inactive
VTFFTAFLTFVYCCMMLMYM | 7.32 ± 0.078
AMTVSWWCCLMYVDMG | 10.59 ± 0.037
RPYNPFPLCILRWRPELL | inactive
VWWVAFYSGTKI | 0.019 ± 1.1
CLYFFLSYRSCCINVFLGFC | -0.326 ± 1
VMNVNSCGWVVRHNR | 4.97 ± 0.1
HNTKSYLWV | inactive
WFFFFNGPAYVFNLNIVNFS | 7.035 ± 0.06
DCECGLNSWKKVT | inactive
VVHQVSVGHCWVSR | 0.683 ± 0.21
AFAVSSLESGWRRRTSLEWL | 0.106 ± 0.55
SSCGYLKTTFSKLSEAHCYR | -1.45 ± 1.1
LGIYIVGTNVSSSWLFLCNR | 0.476 ± 0.4
WLGRCVNNNLNDVCDFQT | -1.17 ± 0.39
CLRGDNKISLDRSGGMTFGQ | 1.79 ± 0.18
RDCIRAVSCVIENTGPSAYE | 0.049 ± 0.56
VTYLMCLWAGVARG | -0.324 ± 1.1
MRFSCWADIVRGDLIPHFVV | 2.84 ± 0.09
CCMCCNDYCRPCFREGVWIG | -0.121 ± 1.1

Substance | amyloid nucleation score
RNALDTDAAE | 0.323 ± 0.55
NRCFEGFAVARFDAGRV | -0.378 ± 1
DKREQRLRQSQILMCGDGGF | 0.157 ± 0.76
GEGHWNYLLASFCNHGMCYF | 7.471 ± 0.029
WFYKVSSA | -0.481 ± 0.55
CGVASSHFDGLLNR | 2.58 ± 0.12
SQKLSIQYQLRYFILLVKPR | -0.704 ± 0.5
RKIYV | -0.139 ± 0.55
VYFMCLWGFI | -0.453 ± 1.1
STVPRVSLLLAPCQVIVAWE | 5.449 ± 0.05
FLKIYPIPNCYERCCVHLPP | 0.06 ± 0.61
LTLHAVWI | -0.022 ± 0.27
IVMVPFLTIPVLYLVVMSSL | -0.788 ± 1.1
SKLEENIPKLVTRYQCGTGR | 0.143 ± 0.37
AIEKSQYLSNVDYRICSLMT | -0.336 ± 0.23
IVACGCVSVSRRSLP | 3.09 ± 0.059
NCFSSRGGARTFGIKLIFSV | 0.524 ± 0.51
YNFDYTLMNYPLKAVPSEW | 8.286 ± 0.053
LERLVSALLHTIRFRRMVVH | inactive
SALNYSFFLL | -0.27 ± 1.1
GRKLMWSRF | 0.004 ± 0.45
